PMC2688778 (Structure (London, England : 1993), 2009)

Target: the molecule itself
Experiment: crystal structure

B1: RecE^606 (P658L) (residues 606-866 of E. coli RecE protein with the P658L mutation) (domain or fragment, UniProt P15032 606-866, looked up)
chain: ENYHAGPGISKSQLDDIADTPALYLWRKNAPVDTTKTKTLDLGTAFHCRVLELEEFSNRFIVAPEFNRRTNAGKEEEKAFLMECASTGKTVITAEEGRKIELMYQSVMALPLGQWLVESAGHAESSIYWEDPETGILCRCRPDKIIPEFHWIMDVKTTADIQRFKTAYYDYRYHVQDAFYSDGYEAQFGVQPTFVFLVASTTIECGRYPVEIFMMGEEAKLAGQQEYHRNLRTLSDCLNTDEWPAIKTLSLPRWAKEYAND
stoichiometry N: 4
